# Measurements: PMC8551311, “Energy transfer between the nicotinamide nucleotide transhydrogenase and ATP synthase of Escherichia coli” (Scientific Reports, 2021)
# B1: E. coli transhydrogenase (TH, EcTH) (Escherichia coli K-12) (protein)
# chain 1: MRIGIPRERLTNETRVAATPKTVEQLLKLGFTVAVESGAGQLASFDDKAFVQAGAEIVEGNSVWQSEIILKVNAPLDDEIALLNPGTTLVSFIWPAQNPELMQKLAERNVTVMAMDSVPRISRAQSLDALSSMANIAGYRAIVEAAHEFGRFFTGQITAAGKVPPAKVMVIGAGVAGLAAIGAANSLGAIVRAFDTRPEVKEQVQSMGAEFLELDFKEEAGSGDGYAKVMSDAFIKAEMELFAAQAKEVDIIVTTALIPGKPAPKLITREMVDSMKAGSVIVDLAAQNGGNCEYTVPGEIFTTENGVKVIGYTDLPGRLPTQSSQLYGTNLVNLLKLLCKEKDGNITVDFDDVVIRGVTVIRAGEITWPAPPIQVSAQPQAAQKAAPEVKTEEKCTCSPWRKYALMALAIILFGWMASVAPKEFLGHFTVFALACVVGYYVVWNVSHALHTPLMSVTNAISGIIVVGALLQIGQGGWVSFLSFIAVLIASINIFGGFTVTQRMLKMFRKN
# chain 2: MSGGLVTAAYIVAAILFIFSLAGLSKHETSRQGNNFGIAGMAIALIATIFGPDTGNVGWILLAMVIGGAIGIRLAKKVEMTEMPELVAILHSFVGLAAVLVGFNSYLHHDAGMAPILVNIHLTEVFLGIFIGAVTFTGSVVAFGKLCGKISSKPLMLPNRHKMNLAALVVSFLLLIVFVRTDSVGLQVLALLIMTAIALVFGWHLVASIGGADMPVVVSMLNSYSGWAAAAAGFMLSNDLLIVTGALVGSSGAILSYIMCKAMNRSFISVIAGGFGTDGSSTGDDQEVGEHREITAEETAELLKNSHSVIITPGYGMAVAQAQYPVAEITEKLRARGINVRFGIHPVAGRLPGHMNVLLAEAKVPYDIVLEMDEINDDFADTDTVLVIGANDTVNPAAQDDPKSPIAGMPVLEVWKAQNVIVFKRSMNTGYAGVQNPLFFKENTHMLFGDAKASVDAILKAL
# Columns and labels:
# Test in all cases: purified protein
# Type in all cases: biochemical, Escherichia coli
# purified protein [1] = substrate: NC(=O)C1=CN([C@@H]2O[C@H](COP(=O)(O)OP(=O)(O)OC[C@H]3O[C@@H](n4cnc5c(N)ncnc54)[C@H](O)[C@@H]3O)[C@@H](O)[C@H]2O)C=CC1; details: apparent, forward reaction, 0.5 mM NADP+ held constant by glutathione reductase/oxidized glutathione, 50 mM HEPES pH 7.5, 0.1% DDM
# purified protein [2] = substrate: NC(=O)C1=CN([C@@H]2O[C@H](COP(=O)(O)OP(=O)(O)OC[C@H]3O[C@@H](n4cnc5c(N)ncnc54)[C@H](OP(=O)(O)O)[C@@H]3O)[C@@H](O)[C@H]2O)C=CC1; details: apparent, reverse reaction, 0.5 mM NAD+ held constant by lactate dehydrogenase/pyruvate, 50 mM HEPES pH 7.5, 0.1% DDM
# purified protein [3] = substrate: NC(=O)c1ccc[n+]([C@@H]2O[C@H](COP(=O)(O)OP(=O)(O)OC[C@H]3O[C@@H](n4cnc5c(N)ncnc54)[C@H](O)[C@@H]3O)[C@@H](O)[C@H]2O)c1; details: apparent, reverse reaction, 100 μM NADPH held constant by glucose-6-phosphate dehydrogenase/D-glucose-6-phosphate, 5 mM MgCl2, 50 mM HEPES pH 7.5, 0.1% DDM
# purified protein [4] = substrate: NC(=O)c1ccc[n+]([C@@H]2O[C@H](COP(=O)(O)OP(=O)(O)OC[C@H]3O[C@@H](n4cnc5c(N)ncnc54)[C@H](OP(=O)(O)O)[C@@H]3O)[C@@H](O)[C@H]2O)c1; details: apparent, forward reaction, NADH held constant by alcohol dehydrogenase/ethanol (50 μM in methods, 500 μM in results), 6 mM hydrazine, 50 mM HEPES pH 7.5, 0.1% DDM
protein,measurement,setting,value
B1,Km,purified protein [1],6.8 ± 1 µM
same,Km,purified protein [2],4.1 ± 1.2 µM
same,Km,purified protein [3],108 ± 12 µM
same,Km,purified protein [4],37 ± 7 µM
